Measurements taken from US20140072581A1 (Zymeworks, published 2014).

Target: T1, CD3 on HBP-ALL (CD3+) cells (UniProt P07766 23-207)
T1 construct: whole, on cells; CD3 is a multi-chain complex
Experiment: live cell ELISA on HBP-ALL (CD3+) cells
Method: These variants were tested for their ability to bind to cells expressing the target antigen using a live cell ELISA binding assay using filter plates and wash steps carried out using a vacuum manifold (method developed by Anne Marcil at the National Research Council, Montreal, Canada). The method was carried out as follows. Cells were maintained in exponential growth phase and then washed, counted and distributed at 10E5 cells per well in 50% medium, 50% blocking buffer. Dilutions of variants in blocking buffer were added to the cells and incubated for 1 hour at 4° C. After collection and four washes in medium, an HRP-conjugated goat anti-human IgG was added to cells which were incubated for 1 hour at 4° C. After collection and four washes in medium and 3 washes in PBS, TMB substrate was added to cells which were incubated for 25 minutes at room temperature. The reaction was stopped by addition of H₂SO4 and OD read at 450 nm. The ELISA results are depicted in Tables 17 and 18. A, B, and C refer to the ratio of Chain A to Chain B used in expression of the variant: Ratio A=Chain A/Chain B=1:1 A/B=50%/50%; Ratio B=Chain A/Chain B=2:1 A/B=66%/34%; Ratio C=Chain A/Chain B=1:2 A/B=34%/66%.

B1: MOR208-CD19 FSA, variant 2176 (antibody, V domains shown)
VH: EVQLVESGGGLVKPGGSLKLSCAASGYTFTSYVMHWVRQAPGKGLEWIGYINPYNDGTKYNEKFQGRVTISSDKSISTAYMELSSLRSEDTAMYYCARGTYYYGTRVFDYWGQGTLVTVSS
VL: DIVMTQSPATLSLSPGERATLSCRSSKSLQNVNGNTYLYWFQQKPGQSPQLLIYRMSNLNSGVPDRFSGSGSGTEFTLTISSLEPEDFAVYYCMQHLEYPITFGAGTKLEIK
notes: Control; also called 2176 A; anti-CD19 warhead from MOR208
B1: no binding (tested: OD450 = or < negative control 1041).
